Measurements: US20060270591A1, “Androgen receptor coregulators” (priority 2002, published 2006)
Values belong to the molecule of their own block, whether it stands above or below them.

Experiments:
[1] = molecular target: T1, GR (Homo sapiens, UniProt P04150); assay: GR transcription activity, MMTV-CAT reporter (Example 1); type: cell-based; parameters: expressed in transfected cells; host or cells: DU145; settings: DU145 cells
T1 sequence (P04150 1-777): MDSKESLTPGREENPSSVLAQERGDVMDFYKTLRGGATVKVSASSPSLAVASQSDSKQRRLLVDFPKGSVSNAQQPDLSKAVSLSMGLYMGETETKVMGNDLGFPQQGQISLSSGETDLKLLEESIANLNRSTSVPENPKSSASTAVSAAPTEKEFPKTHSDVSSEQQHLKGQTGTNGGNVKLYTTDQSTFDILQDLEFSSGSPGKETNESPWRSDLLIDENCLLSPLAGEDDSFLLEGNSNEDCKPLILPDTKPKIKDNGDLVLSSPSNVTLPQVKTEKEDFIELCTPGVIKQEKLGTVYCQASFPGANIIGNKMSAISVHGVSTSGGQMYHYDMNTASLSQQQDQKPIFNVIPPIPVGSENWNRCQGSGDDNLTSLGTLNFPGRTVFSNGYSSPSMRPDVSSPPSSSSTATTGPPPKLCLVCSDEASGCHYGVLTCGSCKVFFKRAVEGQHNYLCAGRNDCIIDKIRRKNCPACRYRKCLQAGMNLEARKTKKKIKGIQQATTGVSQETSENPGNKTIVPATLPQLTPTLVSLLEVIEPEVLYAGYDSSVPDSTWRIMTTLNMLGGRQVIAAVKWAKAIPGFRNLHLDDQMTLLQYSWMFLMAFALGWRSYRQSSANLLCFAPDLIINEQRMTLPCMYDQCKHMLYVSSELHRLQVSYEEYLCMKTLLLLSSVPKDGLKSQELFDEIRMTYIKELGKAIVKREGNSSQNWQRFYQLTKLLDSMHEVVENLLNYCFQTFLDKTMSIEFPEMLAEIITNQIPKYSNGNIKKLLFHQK
Protocol: (§1) 366. Human prostate cancer DU145 or PC3 cells, or human lung carcinoma cells NCI H1299 were grown in Dulbecco's minimal essential medium (DMEM) containing penicillin (25 U/ml), streptomycin (25˜g/ml), and 5% fetal calf serum (FCS). One hour before transfection, the medium was changed to DMEM with 5% charcoal-stripped FCS. Phenol red-free and serum-free media were used on the experiments employing E2 or TGF-β, respectively. A β-galactosidase expression plasmid, pCMV-β-gal, was used as an internal control for transfection efficiency.
(§2) 367. Cells were transfected using the calcium phosphate technique (Yeh, et al. Molec. Endocrinol. 8:77-88, 1994). The medium was changed 24 hr posttransfection and the cells treated with either steroid hormones or hydroxyflutamide, and cultured for an additional 24 hr. Cells were harvested and assayed for CAT activity after the cell lysates were normalized by using β-galactosidaseas an internal control. Chloramphenicol acetyltransferase (CA) activity was visualized by PhosphorImager (Molecular Dynamics) and quantitated by ImageQuant software (Molecular Dynamics).

[2] = molecular target: T2, ER (Homo sapiens, UniProt P03372); assay: ER transcription activity, ERE-CAT reporter (Example 1); type: cell-based; settings: DU145 cells
T2 construct: expressed in transfected cells; host or cells: DU145
T2 sequence (P03372 1-595): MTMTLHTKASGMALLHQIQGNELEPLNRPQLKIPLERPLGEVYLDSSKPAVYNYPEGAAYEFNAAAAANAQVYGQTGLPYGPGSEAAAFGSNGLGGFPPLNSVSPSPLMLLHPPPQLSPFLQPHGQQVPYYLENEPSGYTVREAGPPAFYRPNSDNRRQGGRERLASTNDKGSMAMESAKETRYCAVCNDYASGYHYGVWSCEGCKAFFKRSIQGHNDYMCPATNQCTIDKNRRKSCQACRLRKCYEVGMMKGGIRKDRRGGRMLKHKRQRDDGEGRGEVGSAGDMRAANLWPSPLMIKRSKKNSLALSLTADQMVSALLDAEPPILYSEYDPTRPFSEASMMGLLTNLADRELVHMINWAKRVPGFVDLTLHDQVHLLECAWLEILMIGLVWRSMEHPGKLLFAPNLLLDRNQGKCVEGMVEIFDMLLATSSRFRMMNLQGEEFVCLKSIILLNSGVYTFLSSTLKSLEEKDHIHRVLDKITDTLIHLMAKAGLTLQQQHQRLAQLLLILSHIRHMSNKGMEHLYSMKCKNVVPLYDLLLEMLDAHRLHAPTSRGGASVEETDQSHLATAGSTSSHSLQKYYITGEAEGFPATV
Protocol: as §1, §2

[3] = system: AR; settings: prostate cancer cells; androgens or HF; cited from earlier work
[4] = molecular target: T3, ARA54-ARA54 interactions (Homo sapiens, UniProt Q9UBS8); assay: Mammalian two-hybrid assay of ARA54-ARA54 interaction in DU145 cells; type: cell-based
T3 construct: fl-ARA54, full-length ARA54; expressed in transfected cells; host or cells: DU145
T3 sequence (Q9UBS8 1-474): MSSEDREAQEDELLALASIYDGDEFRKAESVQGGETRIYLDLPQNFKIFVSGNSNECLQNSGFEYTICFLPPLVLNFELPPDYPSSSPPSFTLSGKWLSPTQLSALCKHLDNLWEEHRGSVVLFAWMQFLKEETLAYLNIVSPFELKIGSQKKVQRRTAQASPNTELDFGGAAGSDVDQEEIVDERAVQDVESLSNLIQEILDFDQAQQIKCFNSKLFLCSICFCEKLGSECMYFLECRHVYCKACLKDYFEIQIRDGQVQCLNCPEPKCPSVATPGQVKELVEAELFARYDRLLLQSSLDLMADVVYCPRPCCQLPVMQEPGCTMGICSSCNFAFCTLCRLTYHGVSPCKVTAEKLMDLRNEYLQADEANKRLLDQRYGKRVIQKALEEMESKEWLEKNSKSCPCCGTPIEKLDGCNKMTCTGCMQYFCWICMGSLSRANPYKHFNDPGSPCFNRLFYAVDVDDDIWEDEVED
Protocol: 15. […] DU145 cells were transfected with 2.5 μg of GAL4-hybrid expression plasmid (pGAL0-AR (A) or pCMX-GAL4 DBD-fl-ARA54 (B)), 2.5 μg of VP16-hybrid expression plasmid (pCMX-VP16-fl-ARA54), and 2.5 μg of pG5-CAT, with or without 2.5 μg of pSG5-C′-ARA54 (C′) or pSG5-mt-ARA54 (mt). pCMX-VP16-C′-ARA54 and pCMX-VP16-mt-ARA54 were also cotransfected to test the interactions with AR (A) and fl-ARA54 (B). The total amount of DNA was adjusted to 11.0 μg with pSG5 and/or pVP16 for each transfection. The CAT activity was determined and each CAT activity is presented relative to that of lane 4 in each panel (black bars; set as 100%). Values represent the mean±SD of at least three determinations.
397. DU145 cells were transiently cotransfected with a GAL4-hybrid expression plasmid, a VP16-hybrid expression plasmid, the reporter plasmid pG5-CAT, and the pCMV-O-gal internal control plasmid. Transfections and CAT assays were performed as described above.

effect on GR transcription activity [1]: less than 2 fold
effect on ER transcription activity [2]: less than 2 fold
B1: ARA54: 54 kDa protein that interacts with AR in an androgen-dependent manner; AR coactivator (protein)
chain: T3 sequence (Q9UBS8 1-474)
enhancement of transactivation of wild-type AR and LNCaP mutant AR [3]: 2-6 fold

CAT activity of GAL4-fl-ARA54 / VP16-fl-ARA54 interaction [4]: returned to the basal levels
B2: C′-ARA54: C-terminal region (amino acids 361-474) of ARA54 (protein)
chain: RNEYLQADEANKRLLDQRYGKRVIQKALEEMESKEWLEKNSKSCPCCGTPIEKLDGCNKMTCTGCMQYFCWICMGSLSRANPYKHFNDPGSPCFNRLFYAVDVDDDIWEDEVED
modifications: Homo sapien
notes: C-terminal region (amino acids 361-474) of ARA54
